Measurements: patent US20230250154A1 (CYTONICS, published 2023)
Read-outs that look alike come from different tables or passages of the source. One block for each binder: values may come before it.

Assays:
Experiment in all cases: cell-based or functional assay
ADAMTS5 [1] = biological target: T1, ADAMTS5 (human, UniProt Q9UNA0 262-622, limits assumed)
T1 sequence (looked up): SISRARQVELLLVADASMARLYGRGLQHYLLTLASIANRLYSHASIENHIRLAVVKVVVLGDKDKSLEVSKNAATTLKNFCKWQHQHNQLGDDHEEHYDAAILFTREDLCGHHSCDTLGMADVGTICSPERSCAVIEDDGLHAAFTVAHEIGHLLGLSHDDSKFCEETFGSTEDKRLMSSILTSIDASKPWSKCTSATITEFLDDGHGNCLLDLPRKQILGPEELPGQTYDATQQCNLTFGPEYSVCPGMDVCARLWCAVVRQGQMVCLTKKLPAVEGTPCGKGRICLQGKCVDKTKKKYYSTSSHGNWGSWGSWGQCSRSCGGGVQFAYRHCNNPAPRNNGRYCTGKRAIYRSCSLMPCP

MMP13 [2] = biological target: T2, MMP13 (human, UniProt P45452 104-471, limits assumed)
ADAMTS4 = biological target: T3, ADAMTS4 (human, UniProt O75173 213-685, limits assumed)
T3 sequence (looked up): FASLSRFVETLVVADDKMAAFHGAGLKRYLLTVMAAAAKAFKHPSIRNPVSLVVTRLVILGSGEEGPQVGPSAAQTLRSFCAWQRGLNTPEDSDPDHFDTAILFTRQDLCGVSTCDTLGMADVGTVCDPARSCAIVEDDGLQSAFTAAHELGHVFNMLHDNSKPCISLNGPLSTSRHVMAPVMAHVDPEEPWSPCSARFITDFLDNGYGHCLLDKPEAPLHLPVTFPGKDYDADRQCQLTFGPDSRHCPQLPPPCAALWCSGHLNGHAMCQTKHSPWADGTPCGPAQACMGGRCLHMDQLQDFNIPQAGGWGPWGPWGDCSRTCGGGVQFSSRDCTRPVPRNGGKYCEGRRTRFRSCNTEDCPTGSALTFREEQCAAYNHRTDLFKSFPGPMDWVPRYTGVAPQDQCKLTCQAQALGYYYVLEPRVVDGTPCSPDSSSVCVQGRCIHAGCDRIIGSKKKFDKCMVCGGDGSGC

MMP8 = MMP8 (human, UniProt P22894 101-467, limits assumed)
Sequence of MMP8 (P22894 101-467 limits assumed): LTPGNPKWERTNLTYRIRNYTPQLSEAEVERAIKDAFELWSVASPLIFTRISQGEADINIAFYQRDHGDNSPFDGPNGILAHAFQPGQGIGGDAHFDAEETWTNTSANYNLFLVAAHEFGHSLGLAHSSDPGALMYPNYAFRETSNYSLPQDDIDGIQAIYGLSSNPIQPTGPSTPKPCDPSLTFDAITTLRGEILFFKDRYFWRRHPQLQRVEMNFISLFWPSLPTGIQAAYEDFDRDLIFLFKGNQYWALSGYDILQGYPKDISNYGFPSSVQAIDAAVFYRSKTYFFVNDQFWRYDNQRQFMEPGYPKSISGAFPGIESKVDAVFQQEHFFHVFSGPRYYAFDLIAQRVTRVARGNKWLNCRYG

MMP7 = biological target: T4, MMP7 (UniProt P09237 95-267, limits assumed)
T4 sequence (looked up): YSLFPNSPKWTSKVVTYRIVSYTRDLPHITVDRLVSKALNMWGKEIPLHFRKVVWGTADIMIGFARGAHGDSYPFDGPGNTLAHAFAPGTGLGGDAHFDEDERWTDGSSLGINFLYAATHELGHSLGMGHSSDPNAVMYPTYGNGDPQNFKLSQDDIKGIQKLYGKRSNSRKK

Elastase = biological target: Elastase
ADAMTS5 [3] = biological target: T1, ADAMTS5; remark: listed apart in the source
Cathepsin G = biological target: T5, Cathepsin G (UniProt P08311 21-244)
T5 sequence (looked up): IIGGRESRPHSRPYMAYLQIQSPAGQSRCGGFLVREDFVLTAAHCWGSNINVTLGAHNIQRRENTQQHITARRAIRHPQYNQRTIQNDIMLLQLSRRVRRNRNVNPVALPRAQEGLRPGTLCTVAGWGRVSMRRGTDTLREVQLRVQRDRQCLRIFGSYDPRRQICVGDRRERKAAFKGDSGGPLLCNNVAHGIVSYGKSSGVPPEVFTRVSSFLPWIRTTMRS

MMP13 [4] = biological target: T2, MMP13; remark: listed apart in the source
MMP3 = MMP3 (human, UniProt P08254 100-477, limits assumed)
Sequence of MMP3 (P08254 100-477 limits assumed): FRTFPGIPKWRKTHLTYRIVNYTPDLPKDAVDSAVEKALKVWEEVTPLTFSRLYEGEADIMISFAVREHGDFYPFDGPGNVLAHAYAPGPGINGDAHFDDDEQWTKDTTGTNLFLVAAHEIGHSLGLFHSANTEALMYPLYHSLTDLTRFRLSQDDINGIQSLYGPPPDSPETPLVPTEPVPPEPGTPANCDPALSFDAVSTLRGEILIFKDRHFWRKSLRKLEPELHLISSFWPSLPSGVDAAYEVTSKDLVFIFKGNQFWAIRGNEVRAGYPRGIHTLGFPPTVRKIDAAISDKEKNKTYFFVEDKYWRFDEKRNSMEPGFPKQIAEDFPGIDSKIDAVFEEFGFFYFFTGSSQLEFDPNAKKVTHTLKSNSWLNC

MMP1 = biological target: T6, MMP1 (human, UniProt P03956 100-469, limits assumed)
T6 sequence (looked up): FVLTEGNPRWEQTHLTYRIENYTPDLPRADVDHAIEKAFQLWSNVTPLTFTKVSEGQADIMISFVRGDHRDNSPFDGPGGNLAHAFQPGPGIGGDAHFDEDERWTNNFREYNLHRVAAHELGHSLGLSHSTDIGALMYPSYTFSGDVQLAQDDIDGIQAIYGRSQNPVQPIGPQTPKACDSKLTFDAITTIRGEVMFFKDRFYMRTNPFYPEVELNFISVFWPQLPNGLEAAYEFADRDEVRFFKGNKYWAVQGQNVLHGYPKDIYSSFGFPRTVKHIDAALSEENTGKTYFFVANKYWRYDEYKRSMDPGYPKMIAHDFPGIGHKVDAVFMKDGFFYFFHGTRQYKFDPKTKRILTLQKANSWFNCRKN

MMP2 = biological target: T7, MMP2 (human, UniProt P08253 110-660, limits assumed)
T7 sequence (looked up): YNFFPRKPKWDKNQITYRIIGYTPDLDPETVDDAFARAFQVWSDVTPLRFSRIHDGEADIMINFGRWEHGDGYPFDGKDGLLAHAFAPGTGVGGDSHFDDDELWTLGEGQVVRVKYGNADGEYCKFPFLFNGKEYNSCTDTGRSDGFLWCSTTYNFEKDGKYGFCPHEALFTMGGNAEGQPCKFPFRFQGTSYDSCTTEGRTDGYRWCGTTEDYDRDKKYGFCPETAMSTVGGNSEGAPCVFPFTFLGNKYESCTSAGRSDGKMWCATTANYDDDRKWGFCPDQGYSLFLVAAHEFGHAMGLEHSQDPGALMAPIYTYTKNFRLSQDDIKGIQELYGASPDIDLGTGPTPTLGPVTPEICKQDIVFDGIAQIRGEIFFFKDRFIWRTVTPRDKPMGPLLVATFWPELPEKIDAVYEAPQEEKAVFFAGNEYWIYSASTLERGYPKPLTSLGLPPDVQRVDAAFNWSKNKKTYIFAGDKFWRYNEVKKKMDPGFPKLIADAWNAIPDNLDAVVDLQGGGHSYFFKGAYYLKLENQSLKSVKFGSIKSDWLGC

MMP9 = MMP9 (human, UniProt P14780 107-707, limits assumed)
Sequence of MMP9 (P14780 107-707 limits assumed): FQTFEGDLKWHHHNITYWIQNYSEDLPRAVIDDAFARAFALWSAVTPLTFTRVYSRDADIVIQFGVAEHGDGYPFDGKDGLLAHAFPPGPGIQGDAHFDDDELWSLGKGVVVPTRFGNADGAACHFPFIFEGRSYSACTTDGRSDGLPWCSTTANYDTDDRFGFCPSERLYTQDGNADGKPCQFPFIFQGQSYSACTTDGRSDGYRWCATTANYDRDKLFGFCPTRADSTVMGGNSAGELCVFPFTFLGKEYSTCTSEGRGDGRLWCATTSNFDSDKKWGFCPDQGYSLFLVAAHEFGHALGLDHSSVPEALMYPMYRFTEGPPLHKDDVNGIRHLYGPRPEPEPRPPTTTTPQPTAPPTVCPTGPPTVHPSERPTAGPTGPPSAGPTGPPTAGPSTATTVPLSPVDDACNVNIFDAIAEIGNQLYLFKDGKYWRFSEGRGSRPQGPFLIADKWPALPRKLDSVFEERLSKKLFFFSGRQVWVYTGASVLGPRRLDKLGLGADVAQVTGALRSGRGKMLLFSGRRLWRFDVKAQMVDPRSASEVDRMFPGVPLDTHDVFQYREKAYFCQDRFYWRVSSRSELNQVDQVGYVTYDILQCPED

Protease Inhibition (% of WT) (ADAMTS5 [1]): 126 % of WT
Protease Inhibition (% of WT) (MMP13 [2]): 122 % of WT
Protease Inhibition (% of WT) (ADAMTS4): 86 % of WT
B1: Variant A2M, bait region SEQ ID NO 123 (other)
chain: SVSGKPQYMVLVPSLLHTETTEKGCVLLSYLNETVTVSASLESVRGNRSLFTDLEAENDVLHCVAFAVPKSSSNEEVMFLTVQVKGPTQEFKKRTTVMVKNEDSLVFVQTDKSIYKPGQTVKFRVVSMDENFHPLNELIPLVYIQDPKGNRIAQWQSFQLEGGLKQFSFPLSSEPFQGSYKVVVQKKSGGRTEHPFTVEEFVLPKFEVQVTVPKIITILEEEMNVSVCGLYTYGKPVPGHVTVSICRKYSDASDCHGEDSQAFCEKFSGQLNSHGCFYQQVKTKVFQLKRKEYEMKLHTEAQIQEEGTVVELTGRQSSEITRTITKLSFVKVDSHFRQGIPFFGQVRLVDGKGVPIPNKVIFIRGNEANYYSNATTDEHGLVQFSINTTNVMGTSLTVRVNYKDRSPCYGYQWVSEEHEEAHHTAYLVFSPSKSFVHLEPMSHELPCGHTQTVQAHYILNGGTLLGLKKLSFYYLIMAKGGIVRTGTHGLLVKQEDMKGHFSISIPVKSDIAPVARLLIYAVLPTGDVIGDSAKYDVENCLANKVDLSFSPSQSLPASHAHLRVTAAPQSVCALRAVDQSVLLMKPDAELSASSVYNLLPEKDLTGFPGPLNDQDDEDCINRHNVYINGITYTPVSSTNEKDMYSFLEDMGLKAFTNSKIRKPKMCPQLESQELGQRESESEGSELEGRGSGFKEGVEGKEEEGLGSGFFGFPIGKLRKYFPETWIWDLVVVNSAGVAEVGVTVPDTITEWKAGAFCLSEDAGLGISSTASLRAFQPFFVELTMPYSVIRGEAFTLKATVLNYLPKCIRVSVQLEASPAFLAVPVEKEQAPHCICANGRQTVSWAVTPKSLGNVNFTVSAEALESQELCGTEVPSVPEHGRKDTVIKPLLVEPEGLEKETTFNSLLCPSGGEVSEELSLKLPPNVVEESARASVSVLGDILGSAMQNTQNLLQMPYGCGEQNMVLFAPNIYVLDYLNETQQLTPEIKSKAIGYLNTGYQRQLNYKHYDGSYSTFGERYGRNQGNTWLTAFVLKTFAQARAYIFIDEAHITQALIWLSQRQKDNGCFRSSGSLLNNAIKGGVEDEVTLSAYITIALLEIPLTVTHPVVRNALFCLESAWKTAQEGDHGSHVYTKALLAYAFALAGNQDKRKEVLKSLNEEAVKKDNSVHWERPQKPKAPVGHFYEPQAPSAEVEMTSYVLLAYLTAQPAPTSEDLTSATNIVKWITKQQNAQGGFSSTQDTVVALHALSKYGAATFTRTGKAAQVTIQSSGTFSSKFQVDNNNRLLLQQVSLPELPGEYSMKVTGEGCVYLQTSLKYNILPEKEEFPFALGVQTLPQTCDEPKAHTSFQISLSVSYTGSRSASNMAIVDVKMVSGFIPLKPTVKMLERSNHVSRTEVSSNHVLIYLDKVSNQTLSLFFTVLQDVPVRDLKPAIVKVYDYYETDEFAIAEYNAPCSKDLGNADYKDDDDKGASHHHHHH

Protease Inhibition (% of WT) (MMP8): 92 % of WT
Protease Inhibition (% of WT) (MMP7): 105 % of WT
Protease Inhibition (% of WT) (Elastase): 91 % of WT
Protease Inhibition (% of WT) (ADAMTS5 [3]): 305 % of WT
Protease Inhibition (% of WT) (Cathepsin G): 105 % of WT
Protease Inhibition (% of WT) (MMP13 [4]): 104 % of WT
Protease Inhibition (% of WT) (MMP3): 180 % of WT
Protease Inhibition (% of WT) (MMP1): 101 % of WT
Protease Inhibition (% of WT) (MMP2): 92 % of WT
Protease Inhibition (% of WT) (MMP9): 84 % of WT
B2: Variant A2M, bait region SEQ ID NO 16 (other)
chain: SVSGKPQYMVLVPSLLHTETTEKGCVLLSYLNETVTVSASLESVRGNRSLFTDLEAENDVLHCVAFAVPKSSSNEEVMFLTVQVKGPTQEFKKRTTVMVKNEDSLVFVQTDKSIYKPGQTVKFRVVSMDENFHPLNELIPLVYIQDPKGNRIAQWQSFQLEGGLKQFSFPLSSEPFQGSYKVVVQKKSGGRTEHPFTVEEFVLPKFEVQVTVPKIITILEEEMNVSVCGLYTYGKPVPGHVTVSICRKYSDASDCHGEDSQAFCEKFSGQLNSHGCFYQQVKTKVFQLKRKEYEMKLHTEAQIQEEGTVVELTGRQSSEITRTITKLSFVKVDSHFRQGIPFFGQVRLVDGKGVPIPNKVIFIRGNEANYYSNATTDEHGLVQFSINTTNVMGTSLTVRVNYKDRSPCYGYQWVSEEHEEAHHTAYLVFSPSKSFVHLEPMSHELPCGHTQTVQAHYILNGGTLLGLKKLSFYYLIMAKGGIVRTGTHGLLVKQEDMKGHFSISIPVKSDIAPVARLLIYAVLPTGDVIGDSAKYDVENCLANKVDLSFSPSQSLPASHAHLRVTAAPQSVCALRAVDQSVLLMKPDAELSASSVYNLLPEKDLTGFPGPLNDQDDEDCINRHNVYINGITYTPVSSTNEKDMYSFLEDMGLKAFTNSKIRKPKMCPQLEHGPEFRGVTRYLTAIPENFYGVSELEGRGSSEDLVVQIVEEPHTKLRKYFPETWIWDLVVVNSAGVAEVGVTVPDTITEWKAGAFCLSEDAGLGISSTASLRAFQPFFVELTMPYSVIRGEAFTLKATVLNYLPKCIRVSVQLEASPAFLAVPVEKEQAPHCICANGRQTVSWAVTPKSLGNVNFTVSAEALESQELCGTEVPSVPEHGRKDTVIKPLLVEPEGLEKETTFNSLLCPSGGEVSEELSLKLPPNVVEESARASVSVLGDILGSAMQNTQNLLQMPYGCGEQNMVLFAPNIYVLDYLNETQQLTPEIKSKAIGYLNTGYQRQLNYKHYDGSYSTFGERYGRNQGNTWLTAFVLKTFAQARAYIFIDEAHITQALIWLSQRQKDNGCFRSSGSLLNNAIKGGVEDEVTLSAYITIALLEIPLTVTHPVVRNALFCLESAWKTAQEGDHGSHVYTKALLAYAFALAGNQDKRKEVLKSLNEEAVKKDNSVHWERPQKPKAPVGHFYEPQAPSAEVEMTSYVLLAYLTAQPAPTSEDLTSATNIVKWITKQQNAQGGFSSTQDTVVALHALSKYGAATFTRTGKAAQVTIQSSGTFSSKFQVDNNNRLLLQQVSLPELPGEYSMKVTGEGCVYLQTSLKYNILPEKEEFPFALGVQTLPQTCDEPKAHTSFQISLSVSYTGSRSASNMAIVDVKMVSGFIPLKPTVKMLERSNHVSRTEVSSNHVLIYLDKVSNQTLSLFFTVLQDVPVRDLKPAIVKVYDYYETDEFAIAEYNAPCSKDLGNADYKDDDDKGASHHHHHH
